Measurements from US20110091971A1, “Differentiation of Pluripotent Stem Cells” (priority 2008, published 2011).
Residue numbers refer to the chain shown, from its start.

B1: ACTN7: activin A variant peptide, SEQ ID 8 (protein)
chain: GLECDGKVNYCCKKQHFVSFKDIGWNDWIIAPSGYHANSCSGLCPSHIAGTSGSSLSFHSTVINHYRMRGHSPFSQMGSCCIPTKLRPMSMLYYDDGQNIIKKDIQNMIVEECGCS
B2: ACTN8: activin A variant peptide, SEQ ID 9 (protein)
chain: B1 chain with H16D, S39K, L43K, Q76D, I82V
B3: ACTN9: activin A variant peptide, SEQ ID 10 (protein)
chain: B1 chain with H16D, S39K, S41T, L43K, S75A, Q76D, M77L, S79A
B4: ACTN10: activin A variant peptide, SEQ ID 11 (protein)
chain: B1 chain with H16D, S39R, S75A
B5: ACTN11: activin A variant peptide, SEQ ID 12 (protein)
chain: B1 chain with Y10L, H16L, S39H, S75A, S79A
B6: ACTN12: activin A variant peptide, SEQ ID 13 (protein)
chain: B1 chain with H16N, S39E
B7: ACTN14: activin A variant peptide, SEQ ID 15 (protein)
chain: B1 chain with Y10L, S39R, S41D, S75A, I82V
B8: ACTN17: activin A variant peptide, SEQ ID 18 (protein)
chain: B1 chain with H16D, S39K, S41G, L43K, Q76D, S79A, I82V
B9: ACTN18: activin A variant peptide, SEQ ID 19 (protein)
chain: B1 chain with H16N, S39K, L43K, Q76D, S79A
B10: ACTN19: activin A variant peptide, SEQ ID 20 (protein)
chain: B1 chain with Y10L, H16D, S39K, S41G, L43K, S75A, Q76N
B11: ACTN20: activin A variant peptide, SEQ ID 21 (protein)
chain: B1 chain with Y10L, H16N, S39K, S41G, S75A, S79A
B12: ACTN21: activin A variant peptide, SEQ ID 22 (protein)
chain: B1 chain with H16W, S39K, L43K, S75A, Q76N
B13: ACTN22: activin A variant peptide, SEQ ID 23 (protein)
chain: B1 chain with Y10L, H16D, S39R, S41D, S75A, Q76L, S79A
B14: ACTN23: activin A variant peptide, SEQ ID 24 (protein)
chain: B1 chain with H16D, S39K, S41D, L43K, Q76D
B15: ACTN28: activin A variant peptide, SEQ ID 29 (protein)
chain: B1 chain with H16L, S39H, L43K, S75A, Q76N
B16: ACTN32: activin A variant peptide, SEQ ID 33 (protein)
chain: B1 chain with Y10L, H16D, S39R, S41G, L43K, Q76N
B17: ACTN94: activin A variant peptide, SEQ ID 95 (protein)
chain: GLECDGKVNICCKKQSFGQAKDIGWNDWIIAPSGYHGGGCTGECPSHIAGTSGSSLSFHSTVINHYRMRGHSPWANLKSCCSPTKLRPMSMLYYDDGQNIIKKDIQRMVAEECGCT

These molecules were tested on H1 or H9 human embryonic stem cells (assay: Activin A bioassay: differentiation of human embryonic stem cells to definitive endoderm, cell number and SOX17 intensity by high content analysis (96-well, four days)). Details: supernatant concentration 1x, assay dilution 1:20.
Assay type: cell-based
Summary of the method: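 Read-out was cell count and integrated SOX17 immunofluorescence by high-content imaging, with each well divided by the mean of the 100 ng/ml activin A control. Over the four-day culture, test samples were given in DMEM:F12 with 0.5% FCS plus 20 ng/ml Wnt3a for the first two days and in 2% FCS alone for the last two. Cells were H1 or H9 hESC clusters grown on Matrigel.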
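Wherever Cell Number average is given: Raw total cell count per well from high content imaging.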
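Wherever Sox 17 Intensity average is given: total fluorescence of the cell multiplied by cell area.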

Row | Molecule | Cell Number average | Sox 17 Intensity average
1 | B1 | 1133 | 1.108E+07
2 | B2 | 363 | 5.578E+06
3 | B3 | 11391 | 5.97E+05
4 | B4 | 7417 | 7.52E+05
5 | B5 | 5239 | 3.47E+06
6 | B6 | 5420 | 1.10E+06
7 | B7 | 4968 | 1.50E+06
8 | B8 | 10154 | 1.21E+06
9 | B9 | 6078 | 5.68E+05
10 | B10 | 11017 | 4.09E+04
11 | B11 | 9000 | 1.26E+04
12 | B12 | 8072 | 6.33E+03
13 | B13 | 9909 | 1.32E+05
14 | B14 | 6831 | 2.89E+04
15 | B15 | 7411 | 3.70E+06
16 | B16 | 16166 | 9.11E+04

Same assay, conditions: supernatant concentration 1x, assay dilution 1:20; control = R&D Sys Activin A 100 ng/ml on same plate

Row | Molecule | Sox 17 Intensity % of control [%]
17 | B1 | 6.0
18 | B2 | 3.0
19 | B3 | 2.3
20 | B4 | 2.9
21 | B5 | 13.4
22 | B6 | 4.3
23 | B7 | 5.8
24 | B8 | 4.7
25 | B9 | 2.2
26 | B10 | 0.1
27 | B11 | 0.0
28 | B12 | 0.0
29 | B13 | 0.4
30 | B14 | 0.1
31 | B15 | 12.6
32 | B16 | 0.3

Same assay, conditions: supernatant concentration 10x, assay dilution 1:20

Row | Molecule | Cell Number average | Sox 17 Intensity average
33 | B1 | 2714 | 1.904E+07
34 | B2 | 1419 | 1.181E+07
35 | B3 | 11456 | 6.63E+05
36 | B4 | 8942 | 1.08E+06
37 | B5 | 10321 | 4.06E+07
38 | B6 | 6633 | 7.65E+06
39 | B7 | 6278 | 3.66E+06
40 | B8 | 12596 | 2.83E+05
41 | B9 | 9676 | 1.22E+06
42 | B10 | 11587 | 3.96E+04
43 | B11 | 10217 | 1.52E+05
44 | B12 | 11102 | 4.89E+05
45 | B13 | 8745 | 3.69E+05
46 | B14 | 10482 | 1.63E+05
47 | B15 | 12587 | 4.87E+07
48 | B16 | 14330 | 3.97E+04

Same assay, conditions: supernatant concentration 10x, assay dilution 1:20; assay plates #007, #009, #010

Row | Molecule | Cell Number average | Sox 17 Intensity average
49 | B17 | 20142 | 1.51E+07

Same assay, conditions: supernatant concentration 10x, assay dilution 1:20; control = R&D Sys Activin A 100 ng/ml on same plate

Row | Molecule | Sox 17 Intensity % of control [%]
50 | B17 | 10.7
51 | B1 | 10.4
52 | B2 | 6.4
53 | B3 | 2.6
54 | B4 | 4.2
55 | B5 | 156.8
56 | B6 | 29.6
57 | B7 | 14.1
58 | B8 | 1.1
59 | B9 | 4.7
60 | B10 | 0.1
61 | B11 | 0.5
62 | B12 | 1.7
63 | B13 | 1.3
64 | B14 | 0.6
65 | B15 | 165.7
66 | B16 | 0.1

Same assay, conditions: supernatant concentration 10x, assay dilution 1:40

Row | Molecule | Cell Number average | Sox 17 Intensity average
67 | B1 | 1387 | 1.099E+07
68 | B2 | 372 | 3.869E+06
69 | B3 | 9608 | 4.19E+05
70 | B4 | 7333 | 5.59E+05
71 | B5 | 9493 | 2.79E+07
72 | B6 | 6317 | 2.43E+06
73 | B7 | 5584 | 4.73E+06
74 | B8 | 10807 | 4.38E+05
75 | B9 | 11683 | 2.22E+05
76 | B10 | 12549 | 4.86E+03
77 | B11 | 12284 | 9.03E+03
78 | B12 | 10458 | 8.77E+04
79 | B13 | 9568 | 3.76E+05
80 | B14 | 8184 | 1.47E+05
81 | B15 | 10116 | 3.57E+07
82 | B16 | 11619 | 3.43E+05

Same assay, conditions: supernatant concentration 10x, assay dilution 1:40; control = R&D Sys Activin A 100 ng/ml on same plate

Row | Molecule | Sox 17 Intensity % of control [%]
83 | B1 | 6.0
84 | B2 | 2.1
85 | B3 | 1.6
86 | B4 | 2.2
87 | B5 | 107.8
88 | B6 | 9.4
89 | B7 | 18.3
90 | B8 | 1.7
91 | B9 | 0.9
92 | B10 | 0.0
93 | B11 | 0.0
94 | B12 | 0.3
95 | B13 | 1.3
96 | B14 | 0.5
97 | B15 | 121.5
98 | B16 | 1.2
